Legend:
Assay type in all cases: cell-based, Human
CD86 mRNA in monocytes = assay: Relative quantitative RT-PCR assay; conditions: monocytes with TT 16 h then sCD26 0.5 μg/ml 24 h
[1] = test system: CD86 expression on monocytes; assay: Surface expression on monocytes (flow cytometry); conditions: after TT and sCD26 stimulation; FIG. 13
Procedure: In studies assessing the expression of CD80, CD86, and HLA-DR on purified monocytes (0.5×10^6 monocytes/well), monocytes were preincubated with or without TT (0.5 μg/ml) for 16 h. Following incubation with sCD26 (0.5 μg/ml) for 24 h, FITC-conjugated CD80, CD86, and HLA-DR mAbs (10 μg/ml) were used with PE-conjugated anti-CD14 (10 μg/ml) to gate exclusively on the monocyte population. In experiments assessing the effect of M6P on cellular uptake of sCD26, purified monocytes (0.5×10^6 monocytes/well) were incubated with the appropriate concentration of M6P in the presence or absence of sCD26-OG for 24 h in standard medium. Cells were then washed twice in ice-cold PBS, followed by incubation for 2 min in acidic PBS (pH 3.0) to strip any sCD26-OG attached to the cell surface. Cells were washed in ice-cold PBS and were incubated with mouse Ig isotypes (1 μg/ml) to block nonspecific binding; this was followed by reaction with PE-conjugated anti-CD14 (10 μg/ml) to gate exclusively on monocyte population.
(§1) Flow cytometric analysis of 10,000 viable cells was conducted on FACSCalibur (BD Biosciences, Mountain View, Calif.). Each experiment was repeated at least three times, and the results were provided in the form of a histogram of a representative experiment, or increased mean percent±SE fluorescent intensity compared with control or untreated cells.

[2] = test system: PBMC subpopulations (CD3, CD14, CD19, CD56); assay: sCD26-OG incorporation into PBMC subpopulations (flow cytometry); conditions: 24 h, presence or absence of TT; FIG. 9
Procedure: Assessment of the PBMC population that takes up sCD26-OG was performed with PE-conjugated anti-CD3, anti-CD14, anti-CD19, and anti-CD56 mAbs (10 μg/ml). For these experiments, 1×10^6 PBMC/well were incubated in standard medium containing sCD26-OG for 24 h with or without preincubation with TT. Cells were then washed twice in ice-cold PBS, followed by incubation for 2 min in acidic PBS (pH 3.0) to strip any sCD26-OG attached to the cell surface. Cells were subsequently washed in ice-cold PBS and were incubated with mouse Ig isotypes (1 μg/ml) to block nonspecific binding; this was followed by reaction with PE-conjugated mabs.
as §1

monocytes = assay: Confocal laser microscopy of sCD26 uptake
Procedure: For fluorescent microscopy studies of uptake of sCD26 by monocytes; purified monocytes were incubated with sCD26-OG (1 μg/ml) with or without preincubation with. TT (0.5 μg/ml). Cells were then washed in ice-cold PBS twice and were incubated in acidic PBS (pH 3.0) to strip any sCD26-OG attached to the cell surface. The cells were then attached to microslide glass (Matsunami Glass, Tokyo, Japan) and fixed with 3% paraformaldehyde in PBS for 15 min at room temperature. Cells were blocked with mouse Ig isotypes (1 μg/ml) for 30 min at 4° C., followed by incubation with biotinylated anti-CD14 (10 μg/ml) for 30 min at 4° C., then washed with ice-cold PBS twice and incubated with streptavidin-conjugated Texas red conjugate (1/200; Beckman Coulter) for 30 min at 4° C. In studies of sCD26 uptake via M6P/IGF-IIR on monocytes, purified monocytes were incubated with or without TT for 16 h, and sCD26-OG and M6P/IGF-IIR-red were added to the culture well after being blocked with mouse Ig isotypes (1 μg/ml) for 30 min at 4° C. Cells were then incubated for 30 min at 4° C. For detection of cell surface colocalization, cells were washed in ice-cold PBS twice and were attached to microslide glass, followed by fixation with 3% paraformaldehyde in PBS for 15 min at room temperature. […]

[3] = test system: monocytes and purified T cells; assay: Reconstitution/fixation study: T cell proliferation with preincubated monocytes ([3H]TdR); conditions: TT-pulsed monocytes fixed with 0.05% glutaraldehyde before or after sCD26; FIGS. 12A, 12B
Procedure: All cells were preincubated in the standard medium for 24 h to minimize the risk of potential interference from sCD26 present in human serum (Tanaka et al., 1993). In these studies, cells were incubated in 96-well plates (200 μl/well; Falcon, Franklin Lakes, N.J.). For the time-course study, 1.0×10^5 PBMC were incubated with 0.5 μg/ml TT for 16 h. Then, 0.5 μg/ml sCD26 was added to the well and was incubated for 0, 6, 12, 24, 48, 72, and 96 h. The day when the first sCD26 was added to the culture well was defined as day 0 of culture. All assays in proliferation experiments were performed on day 7 of culture after cells were incubated at 37° C. in a 5% CO2 humidified atmosphere. For the reconstitution study, 0.5×10^6 of monocytes were preincubated with TT, at a concentration of 0.5 μg/ml with different concentrations of sCD26 for 24 h. Monocytes were washed with PBS, and then 1×10^4/well of preincubated monocytes were subjected to the assay with 1×10^5/well of purified T cells from the same donor as the prepared monocytes. […]
T-cell proliferation induced by APC was measured by [^3H]TdR (ICN Radiochemicals, Irvine, Calif.) uptake. Seven-day-incubated cells were pulsed with 1 μCi/well of [^3H]TdR 8 h before harvesting onto a glass-fiber filter (Wallac, Turk, Finland), and the incorporated radioactivity was quantified by a liquid scintillation counter (Wallac).

PBMC = assay: TT-induced proliferation of PBMC, time-course ([3H]TdR incorporation); conditions: DPPIV-deficient mutant sCD26 in PBMC time-course
Excerpt: Human PBMC, collected from healthy adult volunteers who were immunized with TT within two years before donation, were isolated by centrifugation on Ficoll/Paque (Amersham Pharmacia Biotech, Piscataway, N.J.). PBMC were directly used for the time-course studies. For the reconstitution studies, PBMC were further purified into T cell fractions and APC fractions. To obtain a highly purified T cell population, PBMC were separated into an E rosette-positive (E^+) population and were used as resting T cells as determined by flow cytometric analysis (FACSCalibur; Nippon BD Biosciences, Tokyo, Japan) using an FITC-labeled anti-CD3 mAb (BD PharMingen, San Diego, Calif.) with purity being >95%. To obtain APC, an E rosette-negative (E^−) population was adhered to plastic plates for 4 h at 37° C., and adherent cells were used as APC. Monocytes were either purified by a flow cytometer on the basis of PE-labeled anti-CD14 mAb (BD PharMingen)-oriented parameter, or by negative selection through the use of immunomagnetic beads coated with an anti-CD3, CD7, CD19, CD45RA, CD56, and IgE mAb Qailtenyi Biotec, Auburn, Calif.) with purity being >95%. […]
T-cell proliferation induced by APC was measured by [^3H]TdR (ICN Radiochemicals, Irvine, Calif.) uptake. […]

B1: sCD26/DPPIV^−: mutant sCD26 without DPPIV activity, Ser630 replaced by Ala at the active site (protein)
chain: MKGLLGAAALVTIITVPVVLLNKGTDDATADSRKTYTLTDYLKNTYRLKLYSLRWISDHEYLYKQENNILVFNAEYGNSSVFLENSTFDEFGHSINDYSISPDGQFILLEYNYVKQWRHSYTASYDIYDLNKRQLITEERIPNNTQWVTWSPVGHKLAYVWNNDIYVKIEPNLPSYRITWTGKEDIIYNGITDWVYEEEVFSAYSALWWSPNGTFLAYAQFNDTEVPLIEYSFYSDESLQYPKTVRVPYPKAGAVNPTVKFFVVNTDSLSSVTNATSIQITAPASMLIGDHYLCDVTWATQERISLQWLRRIQNYSVMDICDYDESSGRWNCLVARQHIEMSTTGWVGRFRPSEPHFTLDGNSFYKIISNEEGYRHICYFQIDKKDCTFITKGTWEVIGIEALTSDYLYYISNEYKGMPGGRNLYKIQLSDYTKVTCLSCELNPERCQYYSVSFSKEAKYYQLRCSGPGLPLYTLHSSVNDKGLRVLEDNSALDKMLQNVQMPSKKLDFIILNETKFWYQMILPPHFDKSKKYPLLLDVYAGPCSQKADTVFRLNWATYLASTENIIVASFDGRGSGYQGDKIMHAINRRLGTFEVEDQIEAARQFSKMGFVDNKRIAIWGWAYGGYVTSMVLGSGSGVFKCGIAVAPVSRWEYYDSVYTERYMGLPTPEDNLDHYRNSTVMSRAENFKQVEYLLIHGTADDNVHFQQSAQISKALVDVGVDFQAMWYTDEDHGIASSTAHQHIYTHMSHFIKQCFSLP
CD86 mRNA in monocytes
  CD86 mRNA levels (RT-PCR): did not demonstrate enhanced CD86 mRNA levels
CD86 mRNA in monocytes; listed as sCD26/DPPIV^+
  CD86 mRNA levels (RT-PCR): increased mRNA levels
[1]
  CD86 expression on monocytes: did not affect CD86 expression
[2]
  PBMC population that takes up sCD26: preferentially taken up by CD14-positive monocytes
monocytes; 36 h after incubation of monocytes with sCD26
  intracellular detection of sCD26 in monocytes: no longer detectable intracellularly
monocytes; sCD26-OG 1 μg/ml
  uptake by monocytes (confocal microscopy): clearly taken up by monocytes
[3]
  enhanced T cell proliferation, fixation study: seen only when the monocytes were incubated with sCD26/DPPIV^+ before fixation
PBMC
  enhancing effect of TT-induced T cell proliferation: not observed

From patent publication US20060093553A1, “Cd26-based therapies for cancers and immune disease” (priority 2002, published 2006)
